Source: patent US20220267444A1 (CTTQ AKESO SHANGHAI BIOMED TECH, published 2022)
Numbering of substitutions follows the chain as printed. Names may count otherwise.

B1: 5C10H2L2-IgG1mt (antibody)
chain 1: not shown
chain 2: EIVLTQSPDTLSVTPKEKVTLTCRASQSIGTNIHWFQQKPGQSPKLLIKYASESISGVPSRFSGSGSGTDFTLTINSVEAEDAATYYCQQSNSWPYTFGQGTKLEIKRTVAAPSVFIFPPSDEQLKSGTASVVCLLNNFYPREAKVQWKVDNALQSGNSQESVTEQDSKDSTYSLSSTLTLSKADYEKHKVYACEVTHQGLSSPVTKSFNRGEC
B2: 14C12H1L1(hG1DM) (antibody, human IgG1, kappa, L234A L235A)
heavy: not shown
light: DIQMTQSPSSMSASVGDRVTFTCRASQDINTYLSWFQQKPGKSPKTLIYRANRLVSGVPSRFSGSGSGQDYTLTISSLQPEDMATYYCLQYDEFPLTFGAGTKLELKRTVAAPSVFIFPPSDEQLKSGTASVVCLLNNFYPREAKVQWKVDNALQSGNSQESVTEQDSKDSTYSLSSTLTLSKADYEKHKVYACEVTHQGLSSPVTKSFNRGEC
notes: Humanized anti-PD-1 IgG1 mutant of 14C12H1L1(hG1WT) with L234A and L235A in the heavy chain
B3: 14C12H1L1(hG4) (antibody, human IgG4 S228P, kappa)
heavy: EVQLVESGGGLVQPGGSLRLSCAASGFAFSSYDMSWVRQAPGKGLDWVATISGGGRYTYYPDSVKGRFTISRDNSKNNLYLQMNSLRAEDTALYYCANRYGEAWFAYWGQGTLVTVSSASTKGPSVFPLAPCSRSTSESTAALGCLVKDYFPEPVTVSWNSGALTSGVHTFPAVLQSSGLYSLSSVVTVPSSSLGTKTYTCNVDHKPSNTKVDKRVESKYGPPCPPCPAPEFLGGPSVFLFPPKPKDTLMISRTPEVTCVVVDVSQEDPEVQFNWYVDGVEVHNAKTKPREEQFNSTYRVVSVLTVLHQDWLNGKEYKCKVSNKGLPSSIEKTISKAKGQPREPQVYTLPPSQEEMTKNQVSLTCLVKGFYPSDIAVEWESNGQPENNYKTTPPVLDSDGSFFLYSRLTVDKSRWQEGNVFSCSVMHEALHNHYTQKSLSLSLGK
light: B2 light
notes: Humanized anti-PD-1 antibody with the variable regions of 14C12H1L1(hG1WT), Ig gamma-4 chain C region (P01861.1) and Ig kappa chain C region (P01834)
B4: 14C12H1L1(hG1WT) (antibody, human IgG1, kappa)
heavy: not shown
light: B2 light
notes: Humanized anti-PD-1 antibody, wild-type human IgG1 constant region
B5: 14C12H1L1(hG1TM) (antibody, human IgG1, kappa)
heavy: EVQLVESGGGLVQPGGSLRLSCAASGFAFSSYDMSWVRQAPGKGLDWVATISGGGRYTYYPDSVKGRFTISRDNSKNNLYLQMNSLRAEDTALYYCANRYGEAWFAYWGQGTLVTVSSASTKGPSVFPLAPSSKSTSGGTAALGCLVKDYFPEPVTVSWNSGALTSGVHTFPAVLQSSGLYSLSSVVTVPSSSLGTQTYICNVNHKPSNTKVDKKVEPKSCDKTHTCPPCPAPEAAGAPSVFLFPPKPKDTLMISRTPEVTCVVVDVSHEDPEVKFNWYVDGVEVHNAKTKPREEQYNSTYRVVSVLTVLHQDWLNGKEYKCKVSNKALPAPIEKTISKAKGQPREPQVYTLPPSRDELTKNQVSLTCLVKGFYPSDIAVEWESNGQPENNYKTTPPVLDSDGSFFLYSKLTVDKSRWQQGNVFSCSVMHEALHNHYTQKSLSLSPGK
light: B2 light
notes: Humanized anti-PD-1 IgG1 mutant of 14C12H1L1(hG1WT) with L234A, L235A and G237A (EU numbering) in the heavy chain

What was measured:
[1] = target: T1, Serum complement C1q (UniProt P02745 23-245; P02746 28-253; P02747 29-245); assay: BLI (Fortebio Octet); antibody on FAB2G sensor, C1q 1.25-20 nM; 1:1 fit
T1 sequence (P02745 23-245 limits assumed, chain 1 of 3): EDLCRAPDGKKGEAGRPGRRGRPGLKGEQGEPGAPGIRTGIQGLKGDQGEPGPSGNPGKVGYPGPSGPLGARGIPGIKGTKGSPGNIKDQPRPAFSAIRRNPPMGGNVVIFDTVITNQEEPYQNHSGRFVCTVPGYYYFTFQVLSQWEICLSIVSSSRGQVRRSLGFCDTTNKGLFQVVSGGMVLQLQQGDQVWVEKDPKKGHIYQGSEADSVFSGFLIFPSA
T1 sequence (P02746 28-253 limits assumed, chain 2 of 3): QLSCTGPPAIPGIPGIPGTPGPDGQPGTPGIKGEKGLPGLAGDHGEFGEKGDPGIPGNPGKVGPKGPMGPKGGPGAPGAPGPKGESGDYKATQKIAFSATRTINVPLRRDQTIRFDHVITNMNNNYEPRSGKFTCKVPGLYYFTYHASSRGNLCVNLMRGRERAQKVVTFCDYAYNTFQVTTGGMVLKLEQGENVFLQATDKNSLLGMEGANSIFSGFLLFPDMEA
T1 sequence (P02747 29-245 limits assumed, chain 3 of 3): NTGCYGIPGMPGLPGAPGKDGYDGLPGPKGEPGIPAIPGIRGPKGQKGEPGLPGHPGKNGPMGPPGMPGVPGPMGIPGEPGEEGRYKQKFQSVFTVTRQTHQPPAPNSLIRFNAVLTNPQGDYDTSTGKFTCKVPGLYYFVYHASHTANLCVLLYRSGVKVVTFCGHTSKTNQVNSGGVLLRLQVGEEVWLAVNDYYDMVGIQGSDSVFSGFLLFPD
Method: (§1) 50 μg/mL antibody was immobilized on the FAB2G sensor at an immobilization height of about 2.0 nm. The sensor was equilibrated in a buffer for 60 s for blocking, and the binding of the immobilized antibody on the sensor to the antigen C1q at concentrations of 1.25-20 nM (serial two-fold dilution) was determined for 60 s. The antigen and antibody were dissociated in the buffer for 60 s. The sensor was refreshed 4 times in 10 mM glycine pH 1.7, each for 5 s. The shaking speed of the sample plate was 1000 rpm, the temperature was 30° C. and the frequency was 0.6 Hz. The data were analyzed by 1:1 model fitting to obtain affinity constants. The data acquisition software was Fortebio Data Acquisition 7.0, and the data analysis software was Fortebio Data Analysis 7.0.

[2] = target: T1, Serum complement C1q; assay: BLI (Fortebio Octet), antibody immobilised on FAB2G sensor, C1q in solution at 1.25-20 nM
Method: as §1

[3] = target: T2, Fc receptor FcγRIIIa_F158 (UniProt P08637 17-208); assay: BLI (Fortebio Octet), FcγRIIIa_F158 immobilised on HIS1K sensor, antibody in solution at 31.25-500 nM
T2 sequence (P08637 17-208 limits assumed): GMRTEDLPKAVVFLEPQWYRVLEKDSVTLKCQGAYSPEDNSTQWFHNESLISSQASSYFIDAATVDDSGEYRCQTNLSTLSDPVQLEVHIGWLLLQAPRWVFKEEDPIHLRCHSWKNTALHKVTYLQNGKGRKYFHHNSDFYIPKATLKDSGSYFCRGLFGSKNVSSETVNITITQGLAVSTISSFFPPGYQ
Method: (§2) 5 μg/mL FcγRIIIa_F158 was immobilized on the HIS1K sensor for 120 s. The sensor was equilibrated in a buffer for 60 s, and the binding of the immobilized FcγRIIIa_F158 on the sensor to the antibodies at concentrations of 31.25-500 nM (serial two-fold dilution) was determined for 60 s. The antibody was dissociated in the buffer for 60 s. The sensor was refreshed 4 times in 10 mM glycine pH 1.5, each for 5 s. The temperature was 30° C. and the frequency was 0.3 Hz. The data were analyzed by 1:1 model fitting to obtain affinity constants.

[4] = target: T3, Fc receptor FcγRIIIa_V158 (UniProt P08637 17-208); assay: BLI (Fortebio Octet); FcγRIIIa_V158 on HIS1K sensor, antibody 31.25-500 nM; 1:1 fit
T3 sequence (P08637 17-208 F176V limits assumed): as the sequence (P08637 17-208 limits assumed) above, with F160V counted along it
Method: as §2, with “FcγRIIIa_V158” for “FcγRIIIa_F158”

[5] = target: T3, Fc receptor FcγRIIIa_V158; assay: BLI (Fortebio Octet); sentence on Table 2, differs from the table's 6.12E-07
Method: as §2, with “FcγRIIIa_V158” for “FcγRIIIa_F158”

[6] = target: T4, Fc receptor FcγRIIb (human, UniProt P31994 43-217); assay: BLI (Fortebio Octet), hFcγRIIb-his immobilised on NTA sensor, antibody in solution at 12.5-200 nM
T4 construct: also called CD32b; hFcγRIIb-his; not shown: his tag named in 'hFcγRIIb-his'
T4 sequence (looked up): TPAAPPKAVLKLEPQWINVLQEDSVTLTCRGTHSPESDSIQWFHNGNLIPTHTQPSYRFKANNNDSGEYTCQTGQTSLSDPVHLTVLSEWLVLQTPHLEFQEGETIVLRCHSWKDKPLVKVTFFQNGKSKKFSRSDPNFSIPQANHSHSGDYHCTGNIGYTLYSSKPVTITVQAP
Method: (§3) 5 μg/mL hFcγRIIb-his was immobilized on the NTA sensor at an immobilization height of about 1.0 nm. The sensor was equilibrated in a buffer of 0.02% Tween-20, 0.02% casein and 0.1% BSA in PBS, pH 7.4 for 300 s of blocking, and the binding of the immobilized hFcγRIIb-his on the sensor to the antibodies at concentrations of 12.5-200 nM (serial two-fold dilution) was determined for 60 s. The antibody was dissociated in the buffer for 60 s. The sensor was refreshed in 10 mM glycine pH 1.7 and […] nickel sulfate. The temperature was 30° C. and the frequency was 0.6 Hz. The data were analyzed by 1:1 model fitting to obtain affinity constants.

[7] = target: T5, Fc receptor FcγRI (UniProt P12314 16-288); assay: BLI (Fortebio Octet); FcγRI on HIS1K sensor, antibody 3.12-50 nM; 1:1 fit
T5 construct: also called CD64
T5 sequence (P12314 16-288 limits assumed): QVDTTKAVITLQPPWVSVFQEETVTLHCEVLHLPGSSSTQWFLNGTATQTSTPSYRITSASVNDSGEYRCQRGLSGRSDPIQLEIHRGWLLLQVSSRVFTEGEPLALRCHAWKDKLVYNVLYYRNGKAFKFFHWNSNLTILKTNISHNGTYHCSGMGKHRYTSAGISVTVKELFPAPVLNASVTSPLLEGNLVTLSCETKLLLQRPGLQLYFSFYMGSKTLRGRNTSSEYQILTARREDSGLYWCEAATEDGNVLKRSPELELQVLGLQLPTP
Method: (§4) The Fc receptor FcγRI, also known as CD64, can bind to the Fc fragment of IgG antibodies and is involved in antibody-dependent cell-mediated cytotoxicity (ADCC). The binding capacity of a therapeutic monoclonal antibody to Fc receptors will influence the safety and efficacy of the antibody. […] A 1 μg/mL FcγRI solution (from Sinobio) was added to the HIS1K sensor to immobilize the FcγRI on the sensor surface for 50 s. The association and dissociation constants of the antibodies to FcγRI were both determined in the buffer with the antibody concentrations being 3.12-50 nM (serial two-fold dilution). The sensor with immobilized antigen was equilibrated in the buffer for 60 s, and then the binding of the immobilized FcγRI on the sensor to the antibodies was determined for 120 s; the dissociation of FcγRI from the antibodies was determined in 120 s. The temperature was 30° C. and the frequency was 0.3 Hz. The data were fitted and analyzed with a 1:1 model to obtain the affinity constants to FcγRI for the antibodies.

[8] = target: T6, Fc receptor FcγRIIa_R131 (UniProt P12318 34-218, limits assumed); assay: BLI (Fortebio Octet); FcγRIIa_R131 on NTA sensor, antibody 12.5-200 nM; 1:1 fit
T6 sequence (looked up): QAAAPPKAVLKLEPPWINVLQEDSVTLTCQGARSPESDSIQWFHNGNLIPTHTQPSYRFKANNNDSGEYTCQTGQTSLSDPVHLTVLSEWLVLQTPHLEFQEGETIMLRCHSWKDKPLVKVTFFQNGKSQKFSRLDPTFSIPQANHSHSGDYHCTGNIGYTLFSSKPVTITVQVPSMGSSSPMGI
Method: as §3, with “FcγRIIa_R131” for “hFcγRIIb-his”

[9] = target: T4, Fc receptor FcγRIIb; assay: BLI (Fortebio Octet); hFcγRIIb-his on NTA sensor, antibody 12.5-200 nM; 1:1 fit
Method: as §3

[10] = target: T7, Fc receptor FcγRIIa_H131 (UniProt P12318 34-218, limits assumed); assay: BLI (Fortebio Octet); FcγRIIa_H131 on NTA sensor, antibody 12.5-200 nM; 1:1 fit
T7 sequence (looked up): T6 sequence (looked up) with R134H
Method: as §3, with “FcγRIIa_H131” for “hFcγRIIb-his”

[11] = target: T2, Fc receptor FcγRIIIa_F158; assay: BLI (Fortebio Octet); FcγRIIIa_F158 on HIS1K sensor, antibody 31.25-500 nM; 1:1 fit
Method: as §2

[12] = target: T5, Fc receptor FcγRI; assay: BLI (Fortebio Octet), FcγRI immobilised on HIS1K sensor, antibody in solution at 3.12-50 nM
Method: as §4

[13] = target: T3, Fc receptor FcγRIIIa_V158; assay: BLI (Fortebio Octet), FcγRIIIa_V158 immobilised on HIS1K sensor, antibody in solution at 31.25-500 nM
Method: as §2, with “FcγRIIIa_V158” for “FcγRIIIa_F158”

[14] = target: T7, Fc receptor FcγRIIa_H131; assay: BLI (Fortebio Octet), FcγRIIa_H131 immobilised on NTA sensor, antibody in solution at 12.5-200 nM
Method: as §3, with “FcγRIIa_H131” for “hFcγRIIb-his”

Binder | Kd [1] [nM] | koff [1] [s⁻¹] | kon [1] [M⁻¹ s⁻¹] | binding result [2] | binding result [3] | Kd [4] [nM] | koff [4] [s⁻¹] | kon [4] [M⁻¹ s⁻¹] | binding result [6] | Kd [7] [nM] | koff [7] [s⁻¹] | kon [7] [M⁻¹ s⁻¹] | Kd [8] [nM] | koff [8] [s⁻¹] | kon [8] [M⁻¹ s⁻¹] | Kd [9] [nM] | koff [9] [s⁻¹] | kon [9] [M⁻¹ s⁻¹] | Kd [10] [nM] | koff [10] [s⁻¹] | further results
B1 | 4.43 | 0.0105 | 2.38e+06 |  |  |  |  |  |  |  |  |  |  |  |  |  |  |  |  |  | 
B2 |  |  |  | no binding (tested: 20 nM) | no binding (tested: 500 nM) | 612 | 0.0824 | 135000 | no binding (tested: 200 nM) |  |  |  |  |  |  |  |  |  |  |  | Kd [5]: 621 nM
B3 |  |  |  | no binding (tested: 20 nM) | no binding (tested: 500 nM) |  |  |  |  | 5.8 | 0.00369 | 637000 | 31.3 | 0.011 | 350000 | 56.2 | 0.0162 | 288000 | 50.7 | 0.013 | kon [10]: 257000 M⁻¹ s⁻¹
B4 | 1.35 | 0.00654 | 4.83e+06 |  |  | 65.4 | 0.0171 | 261000 |  | 2.52 | 0.00175 | 694000 | 34.6 | 0.0228 | 660000 | 61.3 | 0.0195 | 318000 | 57.4 | 0.0267 | Kd [11]: 102 nM; koff [11]: 0.0256 s⁻¹; kon [11]: 252000 M⁻¹ s⁻¹; kon [10]: 465000 M⁻¹ s⁻¹
B5 |  |  |  | no binding (tested: 20 nM) | no binding (tested: 500 nM) |  |  |  | no binding (tested: 200 nM) |  |  |  | 232 | 0.0938 | 404000 |  |  |  |  |  | binding result [12]: no binding (tested: 50 nM); binding result [13]: no binding (tested: 500 nM); binding result [14]: no binding (tested: 200 nM)
